Data published in article PMC3823824.

How the values were obtained:
[1] = target: Bcl-2 (mouse; recombinant, and endogenous in mouse heart) (UniProt P10417); experiment: GST pull-down after kinase reaction; settings: sites T108
Bcl-xL (recombinant) = Bcl-xL (recombinant) (UniProt Q07817); experiment: GST pull-down after kinase reaction; settings: reference: GST-Beclin1-WT without Mst1; sites T108

Substance	binding against the reference ([1]; reference: GST-Beclin1-N2 without Mst1)	binding against the reference ([1]; reference: GST-Beclin1-WT without Mst1)	binding against the reference (Bcl-xL (recombinant))
Beclin1 (recombinant GST-Beclin1; adenoviral Beclin1 constructs) Beclin1-N2, 72-163 (from UniProt Q14457) GST-Beclin1-N2 treated with Mst1 and ATP	stronger	–	–
Beclin1 (recombinant GST-Beclin1; adenoviral Beclin1 constructs) (from UniProt Q14457) GST-Beclin1-WT treated with Mst1 and ATP	–	stronger	stronger
